Measurements reported in patent publication US20240092930A1 (MABWELL SHANGHAI BIOSCIENCE, published 2024).
One block for each binder: values may come before it.

Key:
[1] = target: T1, recombinant human Trop-2-his protein (ACCESSION NO.: NP_002344.2, AA 1-274) (human, UniProt P09758 27-274); experiment: ELISA, coated human Trop-2-his 1 µg/ml
T1 construct: range 27-274; also called recombinant human Trop-2 protein; recombinant human Trop-2 extracellular domain; not shown: his tag
T1 sequence (looked up): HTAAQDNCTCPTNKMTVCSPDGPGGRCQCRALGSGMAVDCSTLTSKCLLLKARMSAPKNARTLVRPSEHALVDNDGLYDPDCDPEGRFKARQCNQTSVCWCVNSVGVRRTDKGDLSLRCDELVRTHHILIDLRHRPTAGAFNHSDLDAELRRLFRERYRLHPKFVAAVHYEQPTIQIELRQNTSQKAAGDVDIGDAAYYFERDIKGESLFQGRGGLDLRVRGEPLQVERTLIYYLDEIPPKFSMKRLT
Experimental: Washed with PBS 3 times, the plates were blocked with the added 5% BSA PBS at 37° C. for 60 min, and then washed 3 times with PBST. Different concentrations of h23-12 (serial dilutions of 14 concentrations obtained through 3-fold serially diluting a solution with an initial concentration of 10 μg/ml), h4-3 (serial dilutions of 12 concentrations obtained through 3-fold serially diluting a solution with an initial concentration of 3 μg/ml), and Sacituzumab (serial dilutions of 12 concentrations obtained through 3-fold serially diluting a solution with an initial concentration of 3 μg/ml) were added into the plates, with each concentration provided in a parallel well. The plates were incubated at 37° C. for 60 min, and then were washed 4 times with PBST. 1:5000 dilution of H1RP-anti-human Fc (Cat.: 109-035-098, Jackson ImmunoResearch) was added into the plates for incubation at 37° C. for 30 min. Afterwards, the plates were washed with PBST 4 times, and TMB substrate was added for color development at 37° C. for 10 min. Then 2M HCl was added to stop reaction; and absorbances at 450 nm and at 630 nm (as reference wavelength) were read, and A450 nm-630 nm values of the wells in the plates were recorded.

[2] = target: T1, recombinant human Trop-2-his protein …; experiment: BLI, antibody on AHC sensor, Trop-2-his 60 nM
Outline: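 Octet BLI: humanized antibodies at 4 μg/ml in PBS captured 120 s on anti-human IgG Fc (AHC) biosensors, then exposed to 60 nM Trop-2-his (AA 1-274) for 100 s association and 300 s dissociation. Blank-subtracted data fitted to 1:1 Langmuir model for kinetic constants.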

[3] = target: T1, recombinant human Trop-2-his protein …; experiment: BLI, antibody on AHC sensor, Trop-2-his 60 nM; remark: listed apart in the source
Experimental: 5-6 days after cell transfection, culture supernatants were purified through ProA affinity chromatography column to obtain different humanized antibodies. Affinities of the obtained antibodies were determined by an assay including capturing Fc fragments of the antibodies with anti-human IgG Fc capture (AHC) biosensors using Octet QKe system instrument from Fortebio. For the assay, each of the humanized antibodies and control antibody Sacituzumab was diluted to 4 μg/ml in PBS, and was allowed to flow through the surface of an AHC biosensor (Cat.: 18-0015, PALL) for 120 s. Recombinant human Trop-2-his protein (ACCESSION NO.: NP_002344.2, AA 1-274) was used as a mobile phase, and its concentration was 60 nM. The binding time was 100 s and the dissociation time was 300 s. When the assay was finished, data from which the response values of blank control had been deducted were fitted to a 1:1 Langmuir binding model using software, and then kinetic constants for antigen-antibody binding were calculated.
Affinities of the antibodies obtained from the combinations of mutants of murine antibody 11-4, chimeric antibody ch11-4 and control antibody Sacituzumab to recombinant human Trop-2-his protein were determined by ForteBio (Table 11).

[4] = target: T1, recombinant human Trop-2-his protein …; experiment: BLI, antibody on AHC sensor, Trop-2-his 23, 30, 45, 75 nM
Experimental: Affinities of the antibodies were determined by an assay including capturing Fc fragments of the antibodies with anti-human IgG Fc capture (AHC) biosensors using Octet QKe system instrument from Fortebio.
For the assay, each of the antibodies (h23-12, h4-3, and control antibody Sacituzumab) was diluted to 4 μg/ml in PBS, and was allowed to flow through the surface of an AHC biosensor (Cat.: 18-0015, PALL) for 120 s. Recombinant human Trop-2-his protein (ACCESSION NO.: NP_002344.2, AA 1-274) was used as a mobile phase. The Trop-2-his protein was used in following concentrations which corresponded to different antibodies: in case of h23-12, the Trop-2 was used in concentrations of 23, 30, 45, and 75 nM; in case of h4-3, it was used in concentrations of 23, 30, 45, and 60 nM; and in case of Sacituzumab, it was used in concentrations of 23, 30, 45, and 75 nM. The binding time was 100 s and the dissociation time was 300 s. When the assay was finished, data from which the response values of blank control had been deducted were fitted to a 1:1 Langmuir binding model using software, and then kinetic constants for antigen-antibody binding were calculated.

EC50 [1]: 0.0703 nM
Kd [2]: 0.723 nM
Kd [3]: 0.784 nM
Kd [4]: 0.941 nM
koff [4]: 0.000194 s⁻¹
kon [4]: 208000 M⁻¹ s⁻¹
B1: Sacituzumab (antibody, human IgG1, kappa, V domains shown)
VH: QVQLQQSGSELKKPGASVKVSCKASGYTFTNYGMNWVKQAPGQGLKWMGWINTYTGEPTYTDDFKGRFAFSLDTSVSTAYLQISSLKADDTAVYFCARGGFGSSYWYFDVWGQGSLVTVSS
VL: DIQLTQSPSSLSASVGDRVSITCKASQDVSIAVAWYQQKPGKAPKLLIYSASYRYTGVPDRFSGSGSGTDFTLTISSLQPEDFAVYYCQQHYITPLTFGAGTKVEIKR
notes: expressed in HEK293; also called control antibody Sacituzumab; Saituzumab

EC50 [1]: 0.0473 nM
Kd [2]: 0.502 nM
Kd [4]: 0.64 nM
koff [4]: 0.000114 s⁻¹
kon [4]: 178000 M⁻¹ s⁻¹
B2: h23-12-25 (antibody, human IgG1, kappa, V domains shown)
VH: QVQLVQSGAEVKKPGASVKVSCKASGYTFTSYWMHWVRQAPGQGLEWMGEITPSDNYGSYNQKFKGRVTITRDTSTSTAYMELSSLRSEDTAVYYCARGHGNYVSFDYWGQGTLVTVSS
VL: DIQMTQSPSSLSASVGDRVTITCRASQDISNYLNWYQQKPGKAPKLLIYYTSRLESGVPSRFSGSGSGTDFTLTISSLQPEDFATYFCQQGYTLPPYTFGQGTKLEIKR
notes: also called h32-12
